One variant from IntAct's records for PubMed 24944246 can be followed below.

Sequences and labels used below:
B1: Krueppel-like factor 10 (Homo sapiens), Q13118 (parent)
chain: MLNFGASLQQTAEERMEMISERPKESMYSWNKTAEKSDFEAVEALMSMSCSWKSDFKKYVENRPVTPVSDLSEEENLLPGTPDFHTIPAFCLTPPYSPSDFEPSQVSNLMAPAPSTVHFKSLSDTAKPHIAAPFKEEEKSPVSAPKLPKAQATSVIRHTADAQLCNHQTCPMKAASILNYQNNSFRRRTHLNVEAARKNIPCAAVSPNRSKCERNTVADVDEKASAALYDFSVPSSETVICRSQPAPVSPQQKSVLVSPPAVSAGGVPPMPVICQMVPLPANNPVVTTVVPSTPPSQPPAVCPPVVFMGTQVPKGAVMFVVPQPVVQSSKPPVVSPNGTRLSPIAPAPGFSPSAAKVTPQIDSSRIRSHICSHPGCGKTYFKSSHLKAHTRTHTGEKPFSCSWKGCERRFARSDELSRHRRTHTGEKKFACPMCDRRFMRSDHLTKHARRHLSAKKLPNWQMEVSKLNDIALPPTPAPTQ
partner: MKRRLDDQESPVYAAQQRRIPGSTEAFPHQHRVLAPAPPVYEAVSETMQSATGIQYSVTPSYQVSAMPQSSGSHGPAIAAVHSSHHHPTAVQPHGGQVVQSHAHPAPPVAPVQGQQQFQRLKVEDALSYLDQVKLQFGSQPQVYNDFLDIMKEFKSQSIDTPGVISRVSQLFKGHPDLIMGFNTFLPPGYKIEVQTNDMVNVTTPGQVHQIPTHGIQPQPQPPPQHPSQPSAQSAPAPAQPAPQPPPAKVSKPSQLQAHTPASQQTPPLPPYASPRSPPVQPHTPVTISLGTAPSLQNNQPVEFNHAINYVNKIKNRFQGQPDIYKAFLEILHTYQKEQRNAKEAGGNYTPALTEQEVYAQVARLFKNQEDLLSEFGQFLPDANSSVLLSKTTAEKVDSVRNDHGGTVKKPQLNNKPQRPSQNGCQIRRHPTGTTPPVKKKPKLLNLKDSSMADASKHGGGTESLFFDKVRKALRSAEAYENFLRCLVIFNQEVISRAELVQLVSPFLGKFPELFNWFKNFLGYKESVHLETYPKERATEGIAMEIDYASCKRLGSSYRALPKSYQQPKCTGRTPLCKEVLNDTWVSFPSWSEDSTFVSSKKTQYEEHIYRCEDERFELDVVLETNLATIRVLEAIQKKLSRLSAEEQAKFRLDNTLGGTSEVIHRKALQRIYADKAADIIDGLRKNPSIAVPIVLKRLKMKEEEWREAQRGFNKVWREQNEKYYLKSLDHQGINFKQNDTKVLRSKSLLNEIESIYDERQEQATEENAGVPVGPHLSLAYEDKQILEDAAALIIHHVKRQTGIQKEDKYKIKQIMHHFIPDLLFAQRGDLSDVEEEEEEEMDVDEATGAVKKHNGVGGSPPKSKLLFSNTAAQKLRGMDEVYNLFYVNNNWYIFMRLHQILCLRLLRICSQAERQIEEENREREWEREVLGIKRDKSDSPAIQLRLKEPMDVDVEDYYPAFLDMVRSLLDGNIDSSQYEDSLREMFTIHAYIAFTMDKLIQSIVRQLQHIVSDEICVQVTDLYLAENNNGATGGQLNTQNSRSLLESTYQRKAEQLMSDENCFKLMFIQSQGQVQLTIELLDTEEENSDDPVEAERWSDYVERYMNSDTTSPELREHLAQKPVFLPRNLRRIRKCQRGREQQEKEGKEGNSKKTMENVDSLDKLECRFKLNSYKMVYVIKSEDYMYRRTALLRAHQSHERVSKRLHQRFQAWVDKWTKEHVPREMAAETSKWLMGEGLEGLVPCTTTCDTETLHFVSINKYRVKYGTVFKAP

The variants in this experiment derive from B1. The note with it: with sin3a_human SIN3A.
Regarding E40P;A41P, the “effect of a mutation on the interaction” value was “disrupting interaction strength”.
